The test system of assay [1] is Arabidopsis thaliana Columbia (Col-0). Briefly: Vegetative growth and fresh weight of mutant alleles in wild-type background. The assay is classed as in vivo. To be noted: for vegetative growth of wild-type plants: mutant allele in Col-0 background, compared to wild type. As to the method: (§1) The Columbia (Col-0) ecotype of Arabidopsis thaliana was used as the wild type. Plants were grown in the greenhouse on soil or under sterile conditions in Petri dishes containing ATS-medium (Estelle, M. A., and Somerville, C. (1986). Auxin-resistant mutants of Arabidopsis thaliana with an altered morphology. Mol. Gen. Genet. 206, 200-206). All plants were grown at 22° C. under long-day conditions (16 h light/8 h dark).
In order to analyze the consequences of the rock2 and rock3 mutations in wild type, the rock2 and rock3 suppressor mutants in 35S:CKX1 background were crossed to wild-type Columbia. […] The F2 generation was screened for rock2 and rock3 plants in wild-type background (called then rock2 and rock3 mutants).
(§2) At 18 days after germination digital pictures were taken of rosettes and the rosette diameter was measured using the Scion Image program (Scion Corporation, Frederick, Md., USA). Flowers at stage 14 were photographed and their size was also measured using the Scion Image program.
(§3) Fresh weights were measured by weighting either rosettes, shoots without rosettes, or whole aerial parts of the plants. The final plant height and the number of siliques were determined after termination of flowering. For analysis of seed yield, plants were put into paper bags after termination of flowering. After plants were kept dry for additional three weeks, total seed weight was determined.

Assay [2] shares this test system. As to the kind of experiment: Natural leaf senescence of leaf 6 (Fv/Fm of PSII, chlorophyll content) under long-day conditions. The assay is classed as in vivo. As to the method:
as §1
The maximum efficiency of PSII photochemistry (Fv/Fm ratio) of dark adapted plants was measured with FluorCam (Photon Systems Instruments, Brno, Czech Republic). Chlorophyll contents of individual leaves were measured using the Chlorophyll Meter SPAD-502 (Konika Minolta, Bremen, Germany), taking the mean value of two measurements on the same leaf.

Another assay has as its system 35S:CKX1 plants. As to the kind of experiment: Reversion of the cytokinin-deficiency phenotype in the 35S:CKX1 background. The assay is classed as in vivo, Arabidopsis thaliana. As to the method:
Approximately 25000 35S:CKX1 seeds (Werner, T., Motyka, V., Laucou, V., Smets, R., Van Onckelen, H., and Schmülling, T. (2003). Cytokinin-deficient transgenic Arabidopsis plants show multiple developmental alterations indicating opposite functions of cytokinins in the regulation of shoot and root meristem activity. Plant Cell 15, 2532-2550) were soaked for 16 h in 100 ml 0.2% (v/v) ethyl methane sulfonate at room temperature. The M1 generation was grown as single plants and the M2 generation was screened for plants with wild-type-like phenotype.
Mapping populations for rock2 and rock3 were generated by crossing the rock2 35S:CKX1 and rock3 35S:CKX1 plants with wild type ecotype Landsberg erecta. The F2 progeny plants were used to map rock2 and rock3.
In order to compare the consequences of the rock3 mutation with those of the ore12 mutation the latter was introgressed into the 35S:CKX1 background (the rock3 was identified in this background). […] However, at different time points during development the degree of reversion is less strong than the reversion achieved with the rock3 allele. This difference is most evident for seedling size and rosette diameter. These two parameters are good indicators for a changed cytokinin status of the CKX1ox plants.

In assay [3] the test system is Arabidopsis thaliana Columbia (Col-0). As to the kind of experiment: Shoot parameters of mutant plants and transgenic lines (height, siliques, stem thickness, flower size). To be noted: compared to wild-type or ore12 plants; for size of flowers: flowers at stage 14. Type of assay: in vivo. As to the method: as §1
For the construction of the pAHK2:rock2 transgene a 2124 by promoter region of AHK2 was amplified by PCR from genomic DNA of A. thaliana Col-0 and cloned with Gateway™ technology into the pDONR™ P4-P1R entry vector (Invitrogen, Karlsruhe, Germany). After cloning the AHK2 coding sequence with Gateway™ technology into the pDONR™ 221 entry vector (Invitrogen) the rock2 point mutation was introduced by PCR based mutagenesis with the “QuickChange Site-Directed Mutagenesis”-Kit (Stratagene, La Jolla, USA) to obtain the rock2 Allele. Both fragments were combined with Multisite Gateway™ recombinational cloning in the pK7m24GW,3 vector (Karimi et al., 2005). To obtain the pAHK3:rock3 construct a 2062 bp promoter region of AHK3 was amplified by PCR from genomic DNA of A. thaliana Col-0 and the fragment was inserted into pDONR™P4-P1R entry vector (Invitrogen). The AHK3 cDNA containing the open reading frame of the gene was PCR-amplified from A. thaliana Col-0 and cloned into pDONR™222 entry vector (Invitrogen). To introduce the rock3 point mutation the “QuickChange Site-Directed Mutagenesis”-Kit (Stratagene, La Jolla, USA) was used to get the rock3 allele. The AHK3 promoter and the ROCK3 cDNA were combined with Multisite Gateway™ recombinational cloning in the pK7m24GW,3 vector (Karimi, M., De Meyer, B., and Nilson, P. (2005). Modular cloning in plant cells. Trends Plant Sci. 10, 103-105). Both constructs were introduced into Agrobacterium tumefaciens strain GV3101 and A. thaliana Col-0 plants were transformed using the floral-dip method (Clough, S. J., and Bent, A. F. (1998). Floral dip: a simplified method for Agrobacterium-mediated transformation of Arabidopsis thaliana. Plant J. 16, 735-743). Transgenic lines were selected using kanamycin and propagated into the T3 or T4 generation.
as §2, §3

B1: rock2: constitutively active gain-of-function variant of cytokinin receptor AHK2 of Arabidopsis thaliana, SEQ ID No. 1, encoded by SEQ ID No. 3 (protein, listed as Arabidopsis thaliana)
chain: MSITCELLNLTSKKAKKSSSSDKKWLKKPLFFLILCGSLVIVLVMFLRLGRSQKEETDSCNGEEKVLYRHQNVTRSEIHDLVSLFSDSDQVTSFECHKESSPGMWTNYGITCSLSVRSDKQETRGLPWNLGLGHSISSTSCMCGNLEPILQQPENLEEENHEEGLEQGLSSYLRNAWWCLILGVLVCHKIYVSHSKARGERKEKVHLQEALAPKKQQQRAQTSSRGAGRWRKNILLLGILGGVSFSVWWFWDTNEEIIMKRRETLANMCDERARVLQDQFNVSLNHVHALSILVSTFHHGKIPSAIDQRTFEEYTERTNFERPLTSGVAYALKVPHSEREKFEKEHGWAIKKMETEDQTVVQDCVPENFDPAPIQDEYAPVIFAQETVSHIVSVDMMSGEEDRENILRARASGKGVLTSPFKLLKSNHLGVVLTFAVYDTSLPPDATEEQRVEATIGYLGASYDMPSLVEKLLHQLASKQTIAVDVYDTTNTSGLIKMYGSEIGDISEQHISSLDFGDPSRNHEMHCRFKHKLPIPWTAITPSILVLVITFFVGYILYEAINRIATVEEDCQKMRELKARAEAADIAKSQFLATVSHEIRTPMNGVLGMLKMLMDTDLDAKQMDYAQTAHGSGKDLTSLINEVLDQAKIESGRLELENVPFDMRFILDNVSSLLSGKANEKGIELAVYVSSQVPDVVVGDPSRFRQIITNLVGNSIKFTQERGHIFISVHLADEVKEPLTIEDAVLKQRLALGCSESGETVSGFPAVNAWGSWKNFKTCYSTESQNSDQIKLLVTVEDTGVGIPVDAQGRIFTPFMQADSSTSRTYGGTGIGLSISKRLVELMQGEMGFVSEPGIGSTFSFTGVFGKAETNTSITKLERFDLAIQEFTGLRALVIDNRNIRAEVTRYELRRLGISADIVSSLRMACTCCISKLENLAMILIDKDAWNKEEFSVLDELFTRSKVTFTRVPKIFLLATSATLTERSEMKSTGLIDEVVIKPLRMSVLICCLQETLVNGKKRQPNRQRRNLGHLLREKQILVVDDNLVNRRVAEGALKKYGAIVTCVESGKAALAMLKPPHNFDACFMDLQMPEMDGFEATRRVRELEREINKKIASGEVSAEMFCKFSSWHVPILAMTADVIQATHEECMKCGMDGYVSKPFEEEVLYTAVARFFEPC
Consider B1, for which the “increase in fresh weight of rosettes and whole plant over the complete life cycle” value in assay [1] (difference particularly evident at 32-40 DAG) was “effect is strongest”. For the same molecule, in assay [1], the “vegetative growth of wild-type plants” value is “significantly enhance the vegetative growth”. In addition, in assay [2] (leaf 6, compared to wild type and among mutants), the “onset of leaf senescence” value is “earliest onset of leaf senescence”. Moreover, in the assay with 35S:CKX1 plants, the “reversion of the phenotypic consequences of CKX1 overexpression (cytokinin deficiency)” value is reported as “suppress the phenotypic consequences of cytokinin deficiency”. Besides, in assay [3], the “number of siliques on the main stem” value was “more siliques on the main stem”, the “shoot height (plant height)” value was “increased”, the stem thickness result is “thicker stems” and the size of flowers result is recorded as “bigger flowers”.

B2: rock3: constitutively active gain-of-function variant of cytokinin receptor AHK3 of Arabidopsis thaliana, SEQ ID No. 2, encoded by SEQ ID No. 4 (protein, listed as Arabidopsis thaliana)
chain: MSLFHVLGFGVKIGHLFWMLCCWFVSWFVDNGIEDKSGLLVGSVGDLEKTKMTTLKKKNKMWFWNKISSSGLKIPSFSYQFLGSVKFNKAWWRKLVVVWVVFWVLVSIWTFWYFSSQAMEKRKETLASMCDERARMLQDQFNVSMNHVQAMSILISTFHHGKIPSAIDQRTFSEYTDRISFERPLTSGVAYAMRVLHSEREEFERQQGWTIRKMYSLEQNPVHKDDYDLEALEPSPVQEEYAPVIFAQDTVSHVVSLDMLSGKEDRENVLRARSSGKGVLTAPFPLIKTNRLGVILTFAVYKRDLPSNATPKERIEATNGYLGGVFDIESLVENLLQQLASKQTILVNVYDITNHSQPISMYGTNVSADGLERVSPLIFGDPLRKHEMRCRFKQKPPWPVLSMVTSFGILVIALLVAHIIHATVSRIHKVEEDCDKMKQLKKKAEAADVAKSQFLATVSHEIRTPMNGVLGMLHMLMDTELDVTQQDYVRTAQASGKALVSLINEVLDQAKIESGKLELEEVRFDLRGILDDVLSLFSSKSQQKGVELAVYISDRVPDMLIGDPGRFRQILTNLMGNSIKFTEKGHIFVTVHLVDELFESIDGETASSPESTLSGLPVADRQRSWENFKAFSSNGHRSFEPSPPDINLIVSVEDTGVGIPVEAQSRIFTPFMQVGPSISRTHGGTGIGLSISKCLVGLMKGEIGFSSTPKVGSTFTFTAVFSNGMQPAERKNDNNQPIFSEFRGMKAVVVDHRPARAKVSWYHFQRLGIRVEVVPRVEQALHYLKIGTTTVNMILIEQEIWNREADDFIKKLQKDPLFLSPKLILLANSVESSISEALCTGIDPPIVIVKPLRASMLAATLQRGLGIGIREPPQHKGPPALILRNLLLGRKILIVDDNNVNLRVAAGALKKYGADVVCAESGIKAISLLKPPHEFDACFMDIQMPEMDGFEATRRIRDMEEEMNKRIKNGEALIVENGNKTSWHLPVLAMTADVIQATHEECLKCGMDGYVSKPFEAEQLYREVSRFFNSPSDTES
As for B2, in assay [1], the “vegetative growth of wild-type plants” value is on record as “significantly enhance the vegetative growth”. Besides, the “longer life time of leaves compared to wild-type leaves” value in assay [2] (leaf 6, long-day conditions) was “about ten”. In addition, in the assay with 35S:CKX1 plants, the “reversion of the phenotypic consequences of CKX1 overexpression (cytokinin deficiency)” value is “suppress the phenotypic consequences of cytokinin deficiency”. For the same molecule, in assay [3], the stem thickness entry was “thicker stems” and the size of flowers result is on record as “bigger flowers”.

The values are drawn from patent US9127073B2, “Rock2 and Rock3, two new gain-of-function variants of the cytokinin receptors AHK2 and AHK3” (Freie Universitat Berlin, priority 2009, dated 2015).
